{"source": "the supplement of paper PMC12783771", "parents": {"B1": {"name": "library; numbered along this chain (parent)", "chain": "MNIQIGELAKRTACPVVTIRFYEQEGLLPPPGRSRGNFRLYGEEHVERLQFIRHCRSLDMPLSDVRTLLSYRKRPDQDCGEVNMLLDEHIRQVESRIGALLELKHHLVELREACSGARPAQSCGILQGLSDCVCDTRGTTAHPSD"}}, "key": {"[1]": {"variants_of": "B1", "assay": "sfGFP reporter fluorescence (15 h) (µM FITC); higher = higher leak", "settings": "library round: Round 0; ligand: none", "procedure,_shortened": "(§1)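 Values are endpoint sfGFP fluorescence given as µM FITC equivalents. Fluorescence was read at 485/528 nm on a Synergy Neo2, and FITC standard curves were prepared in 50 mM sodium borate pH 8.5. Reactions of 1 μL combined BL21 Star (DE3) PANOx-SP extract, pPbrR-sfGFP reporter, 30 μg/mL GamS and linear PbrR templates (PCR-made, Echo-normalized to 5 nM), with 1 µM lead chloride, 30 µM zinc acetate or no metal, for 15 hr at 30 °C.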"}, "[2]": {"variants_of": "B1", "assay": "sfGFP reporter fluorescence (15 h) (µM FITC); higher = stronger transcriptional activation", "settings": "library round: Round 0", "procedure,_shortened": "as §1"}}, "note": "± gives the standard deviation of the averaged measurements.", "data": [{"variant": "MNIQIGELAKRTACPVVTIRFYEQEGLLPPPGRSRGNFRLYGEEHVERLQFIRHCRSLDMPLSTVRTLLSYRKRPDQDCGEVNMLLDEHIRQVESRIGALLELKHHLVELREACSGARPAQSCGILQGLSDCVCDTRGTTAHPSD", "values": [{"measurement": "sfGFP reporter fluorescence", "setting": "[1]", "result": "0.217 ± 0.0054"}, {"measurement": "sfGFP reporter fluorescence", "setting": "[2]; ligand: 1 µM Pb", "result": "0.331 ± 0.051"}, {"measurement": "sfGFP reporter fluorescence", "setting": "[2]; ligand: 30 µM Zn", "result": "2.74 ± 0.3"}]}, {"variant": "MNIQIGELAKRTACPVVTIRFYEQEGLLPPPGRSRGNFRLYGEEHVERLQFIRHCRSLDMPLSNVRTLLSYRKRPDQDCGEVNMLLDEHIRQVESRIGALLELKHHLVELREACSGARPAQSCGILQGLSDCVCDTRGTTAHPSD", "values": [{"measurement": "sfGFP reporter fluorescence", "setting": "[1]", "result": "0.06652 ± 0.00026"}, {"measurement": "sfGFP reporter fluorescence", "setting": "[2]; ligand: 1 µM Pb", "result": "0.137 ± 0.006"}, {"measurement": "sfGFP reporter fluorescence", "setting": "[2]; ligand: 30 µM Zn", "result": "1.64 ± 0.084"}]}, {"variant": "MNIQIGELAKRTACPVVTIRFYEQEGLLPPPGRSRGNFRLYGEEHVERLQFIRHCRSLDMPLSMVRTLLSYRKRPDQDCGEVNMLLDEHIRQVESRIGALLELKHHLVELREACSGARPAQSCGILQGLSDCVCDTRGTTAHPSD", "values": [{"measurement": "sfGFP reporter fluorescence", "setting": "[1]", "result": "2.97 ± 0.48"}, {"measurement": "sfGFP reporter fluorescence", "setting": "[2]; ligand: 1 µM Pb", "result": "3.46 ± 0.68"}, {"measurement": "sfGFP reporter fluorescence", "setting": "[2]; ligand: 30 µM Zn", "result": "4.15 ± 0.31"}]}, {"variant": "MNIQIGELAKRTACPVVTIRFYEQEGLLPPPGRSRGNFRLYGEEHVERLQFIRHCRSLDMPLSRVRTLLSYRKRPDQDCGEVNMLLDEHIRQVESRIGALLELKHHLVELREACSGARPAQSCGILQGLSDCVCDTRGTTAHPSD", "values": [{"measurement": "sfGFP reporter fluorescence", "setting": "[1]", "result": "0.064 ± 0.0039"}, {"measurement": "sfGFP reporter fluorescence", "setting": "[2]; ligand: 1 µM Pb", "result": "0.112 ± 0.0049"}, {"measurement": "sfGFP reporter fluorescence", "setting": "[2]; ligand: 30 µM Zn", "result": "1.4 ± 0.036"}]}, {"variant": "MNIQIGELAKRTACPVVTIRFYEQEGLLPPPGRSRGNFRLYGEEHVERLQFIRHCRSLDMPLSYVRTLLSYRKRPDQDCGEVNMLLDEHIRQVESRIGALLELKHHLVELREACSGARPAQSCGILQGLSDCVCDTRGTTAHPSD", "values": [{"measurement": "sfGFP reporter fluorescence", "setting": "[1]", "result": "0.61 ± 0.017"}, {"measurement": "sfGFP reporter fluorescence", "setting": "[2]; ligand: 1 µM Pb", "result": "1.75 ± 0.51"}, {"measurement": "sfGFP reporter fluorescence", "setting": "[2]; ligand: 30 µM Zn", "result": "3.81 ± 0.17"}]}, {"variant": "MNIQIGELAKRTACPVVTIRFYEQEGLLPPPGRSRGNFRLYGEEHVERLQFIRHCRSLDMPLSWVRTLLSYRKRPDQDCGEVNMLLDEHIRQVESRIGALLELKHHLVELREACSGARPAQSCGILQGLSDCVCDTRGTTAHPSD", "values": [{"measurement": "sfGFP reporter fluorescence", "setting": "[1]", "result": "0.0815 ± 0.0029"}, {"measurement": "sfGFP reporter fluorescence", "setting": "[2]; ligand: 1 µM Pb", "result": "0.167 ± 0.0052"}, {"measurement": "sfGFP reporter fluorescence", "setting": "[2]; ligand: 30 µM Zn", "result": "1.64 ± 0.044"}]}, {"variant": "MNIQIGELAKRTACPVVTIRFYEQEGLLPPPGRSRGNFRLYGEEHVERLQFIRHCRSLDMPLSLVRTLLSYRKRPDQDCGEVNMLLDEHIRQVESRIGALLELKHHLVELREACSGARPAQSCGILQGLSDCVCDTRGTTAHPSD", "values": [{"measurement": "sfGFP reporter fluorescence", "setting": "[1]", "result": "2.28 ± 0.17"}, {"measurement": "sfGFP reporter fluorescence", "setting": "[2]; ligand: 1 µM Pb", "result": "3.29 ± 0.26"}, {"measurement": "sfGFP reporter fluorescence", "setting": "[2]; ligand: 30 µM Zn", "result": "4.32 ± 0.14"}]}, {"variant": "MNIQIGELAKRTACPVVTIRFYEQEGLLPPPGRSRGNFRLYGEEHVERLQFIRHCRSLDMPLSQVRTLLSYRKRPDQDCGEVNMLLDEHIRQVESRIGALLELKHHLVELREACSGARPAQSCGILQGLSDCVCDTRGTTAHPSD", "values": [{"measurement": "sfGFP reporter fluorescence", "setting": "[1]", "result": "0.0579 ± 0.001"}, {"measurement": "sfGFP reporter fluorescence", "setting": "[2]; ligand: 1 µM Pb", "result": "0.0808 ± 0.0029"}, {"measurement": "sfGFP reporter fluorescence", "setting": "[2]; ligand: 30 µM Zn", "result": "0.781 ± 0.044"}]}, {"variant": "MNIQIGELAKRTACPVVTIRFYEQEGLLPPPGRSRGNFRLYGEEHVERLQFIRHCRSLDMPLSVVRTLLSYRKRPDQDCGEVNMLLDEHIRQVESRIGALLELKHHLVELREACSGARPAQSCGILQGLSDCVCDTRGTTAHPSD", "values": [{"measurement": "sfGFP reporter fluorescence", "setting": "[1]", "result": "0.177 ± 0.0098"}, {"measurement": "sfGFP reporter fluorescence", "setting": "[2]; ligand: 1 µM Pb", "result": "0.5072 ± 0.0036"}, {"measurement": "sfGFP reporter fluorescence", "setting": "[2]; ligand: 30 µM Zn", "result": "3.52 ± 0.1"}]}, {"variant": "MNIQIGELAKRTACPVVTIRFYEQEGLLPPPGRSRGNFRLYGEEHVERLQFIRHCRSLDMPLSSVRTLLSYRKRPDQDCGEVNMLLDEHIRQVESRIGALLELKHHLVELREACSGARPAQSCGILQGLSDCVCDTRGTTAHPSD", "values": [{"measurement": "sfGFP reporter fluorescence", "setting": "[1]", "result": "0.0944 ± 0.0013"}, {"measurement": "sfGFP reporter fluorescence", "setting": "[2]; ligand: 1 µM Pb", "result": "0.22 ± 0.013"}, {"measurement": "sfGFP reporter fluorescence", "setting": "[2]; ligand: 30 µM Zn", "result": "3.02 ± 0.097"}]}, {"variant": "MNIQIGELAKRTACPVVTIRFYEQEGLLPPPGRSRGNFRLYGEEHVERLQFIRHCRSLDMPLSPVRTLLSYRKRPDQDCGEVNMLLDEHIRQVESRIGALLELKHHLVELREACSGARPAQSCGILQGLSDCVCDTRGTTAHPSD", "values": [{"measurement": "sfGFP reporter fluorescence", "setting": "[1]", "result": "0.0607 ± 0.00078"}, {"measurement": "sfGFP reporter fluorescence", "setting": "[2]; ligand: 1 µM Pb", "result": "0.076 ± 0.00078"}, {"measurement": "sfGFP reporter fluorescence", "setting": "[2]; ligand: 30 µM Zn", "result": "0.162 ± 0.0067"}]}, {"variant": "MNIQIGELAKRTACPVVTIRFYEQEGLLPPPGRSRGNFRLYGEEHVERLQFIRHCRSLDMPLSKVRTLLSYRKRPDQDCGEVNMLLDEHIRQVESRIGALLELKHHCVELREACSGARPAQSCGILQMLSDCVCDTRGTTAHPSD", "values": [{"measurement": "sfGFP reporter fluorescence", "setting": "[1]", "result": "6.27 ± 0.28"}, {"measurement": "sfGFP reporter fluorescence", "setting": "[2]; ligand: 1 µM Pb", "result": "5.91 ± 0.52"}, {"measurement": "sfGFP reporter fluorescence", "setting": "[2]; ligand: 30 µM Zn", "result": "4.866 ± 0.045"}]}, {"variant": "MNIQIGELAKRTACPVVTIRFYEQEGLLPPPGRSRGNFRLYGEEHVERLQFIRHCRSLDMPLSKVRTLLSYRKRPDQDCGEVNMLLDEHIRQVESRIGALLELKHHCVELREACSGARPAQSCGILQILSDCVCDTRGTTAHPSD", "values": [{"measurement": "sfGFP reporter fluorescence", "setting": "[1]", "result": "4.71 ± 0.58"}, {"measurement": "sfGFP reporter fluorescence", "setting": "[2]; ligand: 1 µM Pb", "result": "4.78 ± 0.6"}, {"measurement": "sfGFP reporter fluorescence", "setting": "[2]; ligand: 30 µM Zn", "result": "4.48 ± 0.43"}]}, {"variant": "MNIQIGELAKRTACPVVTIRFYEQEGLLPPPGRSRGNFRLYGEEHVERLQFIRHCRSLDMPLSKVRTLLSYRKRPDQDCGEVNMLLDEHIRQVESRIGALLELKHHCVELREACSGARPAQSCGILQGLSDCVCDTRGTTAHPSD", "values": [{"measurement": "sfGFP reporter fluorescence", "setting": "[1]", "result": "3.83 ± 0.36"}, {"measurement": "sfGFP reporter fluorescence", "setting": "[2]; ligand: 1 µM Pb", "result": "3.75 ± 0.15"}, {"measurement": "sfGFP reporter fluorescence", "setting": "[2]; ligand: 30 µM Zn", "result": "4.11 ± 0.21"}]}]}
